The numbers were not newly measured in publication PMC4004251, which cites them from elsewhere.

Among the targets are Glu27 (UniProt position 253, DAATAEKVFKQ); Glu15 (UniProt position 241, KTLKGETTTEA); Glu42 (UniProt position 268, NGVDGEWTYDD).
What all share (conditions): folded GB1 (the article states the structure is stable above pH 3)

Consider “Immunoglobulin G-binding protein G, B1 domain (GB1) (Streptococcus sp. group G)”, for which the pKa entry in the data set with Glu27 is listed as “about 4.5”; with Glu15, “near 4.5”; in the data set with Glu42 it was “about 4.5”.
